For this assay, the target named is chicken LPCAT3 (cLPCAT3), Twin-Strep tag removed, purified in LMNG/GDN (Gallus gallus). As to the kind of experiment: cryo-EM structure; cLPCAT3 extracted with LMNG, dimer fractions from SEC in GDN; with 0.2 mM arachidonoyl CoA (3.49 Å) or 0.5 mM 12:0-LPC (3.57 Å); C2 symmetry.

For the substance “chicken LPCAT3 (cLPCAT3), Twin-Strep tag removed, purified in LMNG/GDN (enzyme)”, the stoichiometry N (as a rule, the number of molecules, sites or subunits per partner or assembly) turned out to be 2.

The record behind these values is article PMC8617236.
